# Source: paper PMC3514461 (ACS chemical biology, 2012)
# B1: hASRGL1-Thr168Ala (human asparaginase-like protein 1, processing-inactive, precursor-like variant) (enzyme, UniProt Q7L266 1-308, looked up)
# chain: MNPIVVVHGGGAGPISKDRKERVHQGMVRAATVGYGILREGGSAVDAVEGAVVALEDDPEFNAGCGSVLNTNGEVEMDASIMDGKDLSAGAVSAVQCIANPIKLARLVMEKTPHCFLTDQGAAQFAAAMGVPEIPGEKLVTERNKKRLEKEKHEKGAQKTDCQKNLGAVGAVALDCKGNVAYATSTGGIVNKMVGRVGDSPCLGAGGYADNDIGAVSTTGHGESILKVNLARLTLFHIEQGKTVEEAADLSLGYMKSRVKGLGGLIVVSKTGDWVAKWTSTSMPWAAAKDGKLHFGIDPDDTTITDLP
# Target: the molecule itself
# Assay: crystal structure
protein,measurement,value
B1,binding result,binds
